# T1: Boi1 SH3 (BOI1_YEAST), P38041
# T1 chain: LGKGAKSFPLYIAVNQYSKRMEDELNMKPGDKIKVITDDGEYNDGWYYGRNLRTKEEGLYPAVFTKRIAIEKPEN
# T2: Boi2 SH3 (BOI2_YEAST), P39969
# T2 chain: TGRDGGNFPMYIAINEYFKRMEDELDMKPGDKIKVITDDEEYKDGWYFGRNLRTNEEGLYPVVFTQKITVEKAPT
# T3: Myo5 SH3 (MYO5_YEAST), Q04439
# T3 chain: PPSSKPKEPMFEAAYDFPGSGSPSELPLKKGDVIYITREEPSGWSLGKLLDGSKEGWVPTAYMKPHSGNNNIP
# T4: Rvs167 SH3 (RV167_YEAST), P39743
# T4 chain: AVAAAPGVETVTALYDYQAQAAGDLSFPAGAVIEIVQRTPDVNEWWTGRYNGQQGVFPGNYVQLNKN
# T5: Yfr024 SH3 (LSB3_YEAST), P43603
# T5 chain: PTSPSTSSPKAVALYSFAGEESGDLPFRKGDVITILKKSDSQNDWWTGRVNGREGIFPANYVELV
# T6: Yhr016c SH3 (YSC84_YEAST), P32793
# T6 chain: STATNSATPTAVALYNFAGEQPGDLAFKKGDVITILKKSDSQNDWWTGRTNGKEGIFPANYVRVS
# B1: YLL065W 94-107 (peptide)
# chain: NIPTKSPPKSPKHK
# B2: YDR543C 77-90 (peptide)
# chain: NITEKSPPKSPKHK
# B3: YCR032W 1499-1512 (peptide)
# chain: NKIPKHLPADPIFS
# B4: YFR013W 78-91 (peptide)
# chain: NKPKRKRPAPPKKK
# B5: YLR189C 152-165 (peptide)
# chain: NLKTKSHPEVPRLD
# B6: YHL035C 1327-1340 (peptide)
# chain: NLSLRYAPNLPPVI
# B7: YOL019W 467-480 (peptide)
# chain: NLYQRTTPAGPDPS
# B8: YPR171W 465-478 (peptide)
# chain: NNLKKRPPTAPQRK
# B9: 368-381 Hypothetical ORF (peptide)
# chain: LVQPVVPDKVFSFR
# B10: 13-26 Hypothetical ORF (peptide)
# chain: LVTPEEPAKNKSER
# B11: 276-289 Small regulatory subunit of Acetolactate synthase (peptide)
# chain: MALPRTPLKTSTEE
# B12: 60-73 ubiquitin-conjugating enzyme (peptide)
# chain: MEYPFKPPKMQFDT
# B13: 923-936 similar to RNA helicases (peptide)
# chain: MKAPKMPDKHRDNY
# B14: 128-141 " putative RNA binding protein, involved in meiosis-specific splicing of the REC107 transcripts in cooperation with the (peptide)
# chain: MLIPNFPNKKLKLN
# B15: 50-63 Putative participant in 3' mRNA processing (peptide)
# chain: MSLPVTPVKSKVSS
# B16: 764-777 mitohcondrial RNA polymerase (peptide)
# chain: MVLPPAPPKNSDPS
# B17: 11-24 Hypothetical ORF (peptide)
# chain: MVRPAPPRRADPEG
# B18: 147-160 Hypothetical ORF (peptide)
# chain: MVTPSKPPKKSVGF
# B19: 38-51 Mitochondrial ribosomal protein MRPL25 (YmL25) (peptide)
# chain: NANPFLPNKHPVTQ
# B20: 165-178 " Radiation repair protein, putative DNA helicase" (peptide)
# chain: NAPPYVPQRSKQPD
# B21: 1037-1050 DNA replication helicase (peptide)
# chain: NDDPVIPYKLSKDT
# B22: 66-79 ubiquitin-conjugating enzyme (peptide)
# chain: NEYPSKPPKVKFPA
# B23: 532-545 Hypothetical ORF (peptide)
# chain: NHIPPFPLRFSFAQ
# Tests used:
# Experiment in all cases: SPOT array
# [1] = molecular target: T1, Boi1 SH3 (BOI1_YEAST), P38041
# [2] = molecular target: T2, Boi2 SH3 (BOI2_YEAST), P39969
# [3] = molecular target: T3, Myo5 SH3 (MYO5_YEAST), Q04439
# [4] = molecular target: T4, Rvs167 SH3 (RV167_YEAST), P39743
# [5] = molecular target: Sho1 SH3 (SHO1_YEAST), P40073
# [6] = molecular target: T5, Yfr024 SH3 (LSB3_YEAST), P43603
# [7] = molecular target: T6, Yhr016c SH3 (YSC84_YEAST), P32793
# Sequence of Sho1 SH3 (SHO1_YEAST), P40073 (P40073 295-366): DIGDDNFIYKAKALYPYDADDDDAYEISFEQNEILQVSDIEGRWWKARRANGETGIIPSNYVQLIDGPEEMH
Binder,"normalised SPOT signal, Boehringer light units (BLU); mean over the file's lines of this peptide [1]","normalised SPOT signal, Boehringer light units (BLU); mean over the file's lines of this peptide [2]","normalised SPOT signal, Boehringer light units (BLU); mean over the file's lines of this peptide [3]","normalised SPOT signal, Boehringer light units (BLU); mean over the file's lines of this peptide [4]","normalised SPOT signal, Boehringer light units (BLU); mean over the file's lines of this peptide [5]","normalised SPOT signal, Boehringer light units (BLU); mean over the file's lines of this peptide [6]","normalised SPOT signal, Boehringer light units (BLU); mean over the file's lines of this peptide [7]"
B1,743,1.2,12500,64.5,53,518,198
B2,3420,18.7,292,124,74.8,187,110
B3,187,21,278,67.8,67.2,835,90.5
B4,635,22.9,872,83.6,88.2,568,81.6
B5,426,142,363,1080,104,327,2740
B6,360,25.4,779,216,40.5,154,135
B7,585,126,114,344,60.6,389,1140
B8,2270,152,419,6090,64.6,6960,4310
B9,,,,,46.1,,
B10,,,,,102,,
B11,,,,,1100,,
B12,,,,,164,,
B13,,,,,181,,
B14,,,,,415,,
B15,,,,,284,,
B16,,,,,141,,
B17,,,,,608,,
B18,,,,,749,,
B19,,,,,210,,
B20,,,,,143,,
B21,,,,,201,,
B22,,,,,330,,
B23,,,,,184,,

# Reference: article PMC314469, “Protein Interaction Networks by Proteome Peptide Scanning” (PLoS Biology, 2004)
